Reference: patent US20220195061A1 (Novartis, published 2022)

Target: human CD40 on cells (human, UniProt P25942 21-277)
Assay: cell-based or functional assay

human CD40 on cells, sequence (P25942 21-277 limits assumed): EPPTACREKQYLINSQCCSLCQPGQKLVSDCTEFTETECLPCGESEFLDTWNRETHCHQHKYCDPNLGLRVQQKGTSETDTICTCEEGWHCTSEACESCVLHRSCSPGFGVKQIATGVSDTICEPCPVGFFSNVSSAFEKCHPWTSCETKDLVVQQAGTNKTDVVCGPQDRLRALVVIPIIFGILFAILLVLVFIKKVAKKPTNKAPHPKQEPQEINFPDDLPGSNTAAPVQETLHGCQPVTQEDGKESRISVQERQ

IC50 (read off the curve), rCD154-induced CD69 expression on CD20pos B cells: ~0.1 µg/mL
B1: CFZ533 (antibody, human IgG1, kappa, N297A)
heavy: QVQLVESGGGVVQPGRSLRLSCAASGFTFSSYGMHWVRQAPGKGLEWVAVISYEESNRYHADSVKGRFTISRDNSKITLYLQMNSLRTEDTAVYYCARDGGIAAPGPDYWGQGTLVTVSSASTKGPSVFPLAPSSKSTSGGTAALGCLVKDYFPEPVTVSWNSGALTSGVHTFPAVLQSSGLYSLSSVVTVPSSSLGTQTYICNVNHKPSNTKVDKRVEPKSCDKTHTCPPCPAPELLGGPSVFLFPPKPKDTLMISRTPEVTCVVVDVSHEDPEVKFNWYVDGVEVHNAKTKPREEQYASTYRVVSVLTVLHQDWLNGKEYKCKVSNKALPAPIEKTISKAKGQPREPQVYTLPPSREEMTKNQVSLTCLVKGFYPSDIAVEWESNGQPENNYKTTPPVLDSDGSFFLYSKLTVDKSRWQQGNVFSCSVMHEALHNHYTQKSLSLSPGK
light: DIVMTQSPLSLTVTPGEPASISCRSSQSLLYSNGYNYLDWYLQKPGQSPQVLISLGSNRASGVPDRFSGSGSGTDFTLKISRVEAEDVGVYYCMQARQTPFTFGPGTKVDIRRTVAAPSVFIFPPSDEQLKSGTASVVCLLNNFYPREAKVQWKVDNALQSGNSQESVTEQDSKDSTYSLSSTLTLSKADYEKHKVYACEVTHQGLSSPVTKSFNRGEC
